{"source": "paper PMC5779224", "about": "“Autoinhibition of ankyrin-B/G membrane target bindings by intrinsically disordered segments from the tail regions” (eLife, 2017)", "binders": {"B1": {"name": "E-cadherin (aa 734–884) (domain or fragment)", "chain": "not shown", "notes": "source: E. coli BL21 (DE3), purified (Ni2+-NTA, size exclusion)"}, "B2": {"name": "AnkG long linker (aa 837–920; AI-c + AI-b) (domain or fragment, rat, UniProt O70511-1 837-920, looked up)", "chain": "TEKHKMNVPETMNEVLDMSDDEVGKASAPEKLSDGEYISDGEEGEDAITGDTDKYLGPQDLKELGDDSLPAEGYVGFSLGARSA", "notes": "numbers count on: rat AnkG NM_001033984.1 (MBD-UPA); source: E. coli BL21 (DE3), purified (Ni2+-NTA, size exclusion)"}, "B3": {"name": "AnkB_AI-b (aa 865–896) (domain or fragment, human, UniProt Q01484-2 865-896, looked up)", "chain": "EDLKELGDDSLPSSQFLDGMNYLRYSLEGGRS", "notes": "numbers count on: human 220 kDa AnkB NM_020977.3; also called 32-aa fragment; source: E. coli BL21 (DE3), purified (Ni2+-NTA, size exclusion)"}, "B4": {"name": "AnkB_AI-c Asn834Lys (domain or fragment, human, UniProt Q01484-2 828-852, looked up)", "chain": "TEKHKLKVPETMTEVLDVSDEEGDD", "notes": "numbers count on: human 220 kDa AnkB NM_020977.3; source: E. coli BL21 (DE3), purified (Ni2+-NTA, size exclusion)"}, "B5": {"name": "AnkB_AI-c Leu843Gln (domain or fragment, human, UniProt Q01484-2 828-852, looked up)", "chain": "TEKHKLNVPETMTEVQDVSDEEGDD", "notes": "as for B4"}, "B6": {"name": "AnkB_AI-c Met839Gln (domain or fragment, human, UniProt Q01484-2 828-852, looked up)", "chain": "TEKHKLNVPETQTEVLDVSDEEGDD", "notes": "as for B4"}}, "experiment_in_all_cases": "ITC; VP-ITC MicroCal, 25 °C; proteins in 50 mM Tris-HCl pH 7.8, 1 mM DTT, 1 mM EDTA with 100 mM or 500 mM NaCl as required; who was titrated is not told", "conditions_in_all_cases": "both partners purified", "key": {"[1]": {"molecular_target": "T1, AnkG 38–855 (AnkG MBD-AI-c protein; MBD + partial AI-c) (rat, UniProt O70511-1 38-855)", "T1 construct": "numbers count on: rat AnkG NM_001033984.1 (MBD-UPA); also called AnkG WT; source: E. coli BL21 (DE3), purified (Ni2+-NTA, size exclusion)", "T1 sequence (looked up)": "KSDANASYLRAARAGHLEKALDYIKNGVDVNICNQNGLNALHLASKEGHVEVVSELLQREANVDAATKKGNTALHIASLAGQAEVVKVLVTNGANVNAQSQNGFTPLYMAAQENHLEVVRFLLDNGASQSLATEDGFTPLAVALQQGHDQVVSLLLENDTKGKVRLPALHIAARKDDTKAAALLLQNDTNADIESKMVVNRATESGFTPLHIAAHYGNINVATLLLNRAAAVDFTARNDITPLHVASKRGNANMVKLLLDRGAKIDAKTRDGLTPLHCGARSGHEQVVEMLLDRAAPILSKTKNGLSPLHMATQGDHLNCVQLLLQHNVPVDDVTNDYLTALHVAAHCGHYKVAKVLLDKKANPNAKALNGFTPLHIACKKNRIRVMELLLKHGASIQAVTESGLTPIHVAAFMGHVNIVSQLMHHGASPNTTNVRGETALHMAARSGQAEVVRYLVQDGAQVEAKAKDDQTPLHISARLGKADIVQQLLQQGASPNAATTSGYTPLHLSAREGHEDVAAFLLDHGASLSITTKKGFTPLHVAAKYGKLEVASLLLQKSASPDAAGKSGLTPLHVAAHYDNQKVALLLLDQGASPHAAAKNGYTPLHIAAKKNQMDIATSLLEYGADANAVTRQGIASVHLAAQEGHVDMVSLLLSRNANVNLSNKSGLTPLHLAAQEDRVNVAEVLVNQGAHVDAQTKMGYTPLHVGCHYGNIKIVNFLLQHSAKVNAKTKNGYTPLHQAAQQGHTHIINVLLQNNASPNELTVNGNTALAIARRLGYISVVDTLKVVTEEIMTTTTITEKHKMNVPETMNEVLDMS"}, "[2]": {"molecular_target": "T2, AnkG 38–903 (MBD + AI-c + AI-b) (rat, UniProt O70511-1 38-903)", "T2 construct": "numbers count on: rat AnkG NM_001033984.1 (MBD-UPA); also called extended AnkG MBD; source: E. coli BL21 (DE3), purified (Ni2+-NTA, size exclusion)", "T2 sequence (looked up)": "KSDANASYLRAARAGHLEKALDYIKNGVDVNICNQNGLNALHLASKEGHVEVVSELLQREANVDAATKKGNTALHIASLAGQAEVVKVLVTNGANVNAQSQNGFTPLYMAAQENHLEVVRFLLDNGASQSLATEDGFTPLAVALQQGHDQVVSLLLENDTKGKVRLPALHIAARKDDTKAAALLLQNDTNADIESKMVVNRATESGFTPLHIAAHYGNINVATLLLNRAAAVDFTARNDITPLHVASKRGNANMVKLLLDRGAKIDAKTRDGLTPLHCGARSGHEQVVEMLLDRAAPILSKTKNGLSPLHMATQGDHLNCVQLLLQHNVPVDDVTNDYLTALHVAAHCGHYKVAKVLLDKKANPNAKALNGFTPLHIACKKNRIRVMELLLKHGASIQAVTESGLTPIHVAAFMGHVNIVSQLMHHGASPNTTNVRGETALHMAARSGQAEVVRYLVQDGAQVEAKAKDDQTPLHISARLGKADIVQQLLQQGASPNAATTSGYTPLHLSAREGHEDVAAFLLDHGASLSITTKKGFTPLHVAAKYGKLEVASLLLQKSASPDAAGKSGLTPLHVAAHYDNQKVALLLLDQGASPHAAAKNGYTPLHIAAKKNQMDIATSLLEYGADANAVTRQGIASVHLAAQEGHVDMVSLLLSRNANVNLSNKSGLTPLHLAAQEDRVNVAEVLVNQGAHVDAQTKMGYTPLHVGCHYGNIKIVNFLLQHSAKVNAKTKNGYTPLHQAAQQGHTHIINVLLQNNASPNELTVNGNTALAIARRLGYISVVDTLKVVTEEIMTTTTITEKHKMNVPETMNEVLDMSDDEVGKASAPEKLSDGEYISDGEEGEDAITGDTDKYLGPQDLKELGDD"}, "[3]": {"molecular_target": "T3, AnkB 28–847 (MBD + partial AI-c) (human, UniProt Q01484-2 28-847)", "T3 construct": "ankyrin-B (AnkB), human 220 kDa isoform, residues 28-847: MBD and a short 20-residue linker; numbers count on: human 220 kDa AnkB NM_020977.3; also called extended MBD with a short 20-residue linker; source: E. coli BL21 (DE3), purified (Ni2+-NTA, size exclusion)", "T3 sequence (looked up)": "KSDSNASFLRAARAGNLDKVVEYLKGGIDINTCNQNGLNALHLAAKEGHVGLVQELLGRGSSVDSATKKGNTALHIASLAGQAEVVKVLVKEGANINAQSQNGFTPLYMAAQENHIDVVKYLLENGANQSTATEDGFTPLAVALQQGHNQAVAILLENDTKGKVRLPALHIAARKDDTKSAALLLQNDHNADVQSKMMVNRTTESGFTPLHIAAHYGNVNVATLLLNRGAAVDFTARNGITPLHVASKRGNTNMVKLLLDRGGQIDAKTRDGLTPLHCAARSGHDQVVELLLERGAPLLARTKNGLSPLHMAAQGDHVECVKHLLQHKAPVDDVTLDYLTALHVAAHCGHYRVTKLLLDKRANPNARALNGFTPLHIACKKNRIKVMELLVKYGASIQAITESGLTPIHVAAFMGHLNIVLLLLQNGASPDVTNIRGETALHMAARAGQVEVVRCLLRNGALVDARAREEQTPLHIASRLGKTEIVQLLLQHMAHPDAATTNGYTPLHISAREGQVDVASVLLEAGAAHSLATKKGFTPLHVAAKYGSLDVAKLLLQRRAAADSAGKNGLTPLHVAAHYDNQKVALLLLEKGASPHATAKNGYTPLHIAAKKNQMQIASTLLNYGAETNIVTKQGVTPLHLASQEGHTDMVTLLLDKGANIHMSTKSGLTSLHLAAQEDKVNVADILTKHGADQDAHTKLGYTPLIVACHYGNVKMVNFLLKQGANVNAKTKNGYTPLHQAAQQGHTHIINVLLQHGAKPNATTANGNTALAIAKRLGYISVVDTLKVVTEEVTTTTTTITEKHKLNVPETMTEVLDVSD"}, "[4]": {"molecular_target": "T4, AnkB_MBD (AnkB ANK repeats only, aa 28–827) (human, UniProt Q01484-2 28-827)", "T4 construct": "ankyrin-B (AnkB), human 220 kDa isoform, residues 28-827: the 24 ANK repeats (MBD), no linker; numbers count on: human 220 kDa AnkB NM_020977.3; Poor quality in 100 mM NaCl buffer; also called AnkB 28–827; source: E. coli BL21 (DE3), purified (Ni2+-NTA, size exclusion)", "T4 sequence (looked up)": "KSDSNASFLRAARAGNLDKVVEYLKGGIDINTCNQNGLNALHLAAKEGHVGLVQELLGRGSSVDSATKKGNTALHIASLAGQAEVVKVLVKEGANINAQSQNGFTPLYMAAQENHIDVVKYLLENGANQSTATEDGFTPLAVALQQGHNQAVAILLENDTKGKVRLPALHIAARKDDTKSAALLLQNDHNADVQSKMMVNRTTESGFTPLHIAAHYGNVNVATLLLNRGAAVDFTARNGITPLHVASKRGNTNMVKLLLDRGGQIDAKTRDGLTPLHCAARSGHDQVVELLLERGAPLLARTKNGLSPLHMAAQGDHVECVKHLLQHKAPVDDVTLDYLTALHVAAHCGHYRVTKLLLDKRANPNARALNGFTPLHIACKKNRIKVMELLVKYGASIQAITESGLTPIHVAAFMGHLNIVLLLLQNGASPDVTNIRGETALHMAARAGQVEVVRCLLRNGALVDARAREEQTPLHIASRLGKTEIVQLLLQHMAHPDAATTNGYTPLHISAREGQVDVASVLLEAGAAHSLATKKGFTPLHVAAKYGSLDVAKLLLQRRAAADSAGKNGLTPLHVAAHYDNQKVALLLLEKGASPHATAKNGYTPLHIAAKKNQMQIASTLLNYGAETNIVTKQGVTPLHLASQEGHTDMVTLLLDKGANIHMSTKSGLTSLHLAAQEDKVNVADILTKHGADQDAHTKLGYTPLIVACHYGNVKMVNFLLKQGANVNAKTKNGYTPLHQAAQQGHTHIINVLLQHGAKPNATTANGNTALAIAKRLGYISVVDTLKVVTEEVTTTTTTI"}}, "data": [{"binder": "B1", "values": [{"measurement": "binding result", "setting": "[1]", "value": "binds"}, {"measurement": "binding result", "setting": "[2]", "value": "binds"}, {"measurement": "binding result", "setting": "[3]", "value": "binds"}]}, {"binder": "B2", "values": [{"measurement": "binding result", "setting": "[1]", "value": "binds"}]}, {"binder": "B3", "values": [{"measurement": "binding result", "setting": "[3]", "value": "binds"}]}, {"binder": "B4", "values": [{"measurement": "binding result", "setting": "[4]", "value": "binds"}]}, {"binder": "B5", "values": [{"measurement": "binding result", "setting": "[4]", "value": "binds"}]}, {"binder": "B6", "values": [{"measurement": "binding result", "setting": "[4]", "value": "binds"}]}]}
